Data taken from patent publication US6140490.

Biological target: Complement C1q (Homo sapiens) (UniProt P02745+P02746+P02747)
Test: filter
Conditions: 2'-NH2 C and U; MgPBS, 37 C; starting pool

Complement C1q (Homo sapiens), sequence (P02745 23-245, chain 1 of 3): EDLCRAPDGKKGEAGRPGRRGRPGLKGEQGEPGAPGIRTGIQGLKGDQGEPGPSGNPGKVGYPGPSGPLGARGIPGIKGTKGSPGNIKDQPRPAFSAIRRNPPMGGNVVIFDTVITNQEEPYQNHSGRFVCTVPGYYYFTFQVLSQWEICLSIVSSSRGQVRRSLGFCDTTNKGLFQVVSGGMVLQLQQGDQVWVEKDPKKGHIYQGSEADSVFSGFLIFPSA
Complement C1q (Homo sapiens), sequence (P02746 28-253, chain 2 of 3): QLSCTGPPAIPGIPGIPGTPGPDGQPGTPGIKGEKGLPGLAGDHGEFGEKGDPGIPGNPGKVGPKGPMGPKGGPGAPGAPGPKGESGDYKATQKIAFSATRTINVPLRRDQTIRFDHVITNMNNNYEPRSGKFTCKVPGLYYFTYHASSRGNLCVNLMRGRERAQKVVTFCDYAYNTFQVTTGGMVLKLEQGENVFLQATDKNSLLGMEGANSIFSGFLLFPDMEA
Complement C1q (Homo sapiens), sequence (P02747 29-245, chain 3 of 3): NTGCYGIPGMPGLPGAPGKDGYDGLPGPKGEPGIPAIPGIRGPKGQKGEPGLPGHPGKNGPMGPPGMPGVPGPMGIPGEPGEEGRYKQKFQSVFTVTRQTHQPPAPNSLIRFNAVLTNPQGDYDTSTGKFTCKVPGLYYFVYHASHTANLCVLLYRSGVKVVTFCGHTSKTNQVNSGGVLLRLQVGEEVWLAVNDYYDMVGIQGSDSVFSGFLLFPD

## GGGAGGACGAUGCGGNNNNNNNNNNNNNNNNNNNNNNNNNNNNNNNNNNNNNNNNNNNNNNNNNNCAGACGACUCGCCCGA [random 50N7 2'-NH2 RNA pool]
  Kd: 2300 nM
